From PMC4974639, “Crystal structures of APOBEC3G N-domain alone and its complex with DNA”

Experiments:
[1] = biological target: T1, rA3G-CD1 (loop-8 mutant) (Macaca mulatta (rhesus macaque), UniProt M1GSK9 1-138+=AEAG+147-196, internal_change); assay: EMSA; ITC: 100 mM NaCl, 50 mM HEPES pH 7.5, 25 C; EMSA: 60 mM HEPES pH 7.5, 100 mM NaCl, on ice 10 min, native PAGE; conditions: protein: recombinant, tags: GST tag removed with PreScission (pGEX-6P-1), chain copies: 2
[2] = biological target: T1, rA3G-CD1 (loop-8 mutant); assay: ITC; n=0.83; ITC: 100 mM NaCl, 50 mM HEPES pH 7.5, 25 C; EMSA: 60 mM HEPES pH 7.5, 100 mM NaCl, on ice 10 min, native PAGE; conditions: protein: recombinant; tags: GST tag removed with PreScission (pGEX-6P-1); chain copies: 2
[3] = biological target: rA3G-CD1 Y124A (Macaca mulatta (rhesus macaque), UniProt M1GSK9 1-138+=AEAG+147-196, Y124A;internal_change); assay: ITC; ITC: 100 mM NaCl, 50 mM HEPES pH 7.5, 25 C; EMSA: 60 mM HEPES pH 7.5, 100 mM NaCl, on ice 10 min, native PAGE; conditions: protein: recombinant; tags: GST tag removed with PreScission (pGEX-6P-1)
Sequence of rA3G-CD1 Y124A (M1GSK9 entry or part of it Y124A/| Y124A Y124A): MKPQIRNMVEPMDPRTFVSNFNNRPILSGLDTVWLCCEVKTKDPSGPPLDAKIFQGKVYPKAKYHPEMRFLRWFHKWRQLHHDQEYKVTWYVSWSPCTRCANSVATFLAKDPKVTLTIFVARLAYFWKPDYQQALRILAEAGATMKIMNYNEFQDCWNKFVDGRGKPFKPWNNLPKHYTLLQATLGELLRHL

[4] = biological target: rA3G-CD1 FWKL mutant (Macaca mulatta (rhesus macaque), UniProt M1GSK9 1-138+=AEAG+147-196, F126Y;W127S;K180S;L184S;internal_change); assay: as above; conditions: protein: recombinant; tags: GST tag removed with PreScission (pGEX-6P-1)
Sequence of rA3G-CD1 FWKL mutant (M1GSK9 entry or part of it F126Y;W127S;K180S;L184S/| mutant): as the sequence (M1GSK9 entry or part of it Y124A/| Y124A Y124A) above, with A124Y, F126Y, W127S, K176S, L180S counted along it

[5] = biological target: T1, rA3G-CD1 (loop-8 mutant); assay: ITC; n=1.47; ITC: 100 mM NaCl, 50 mM HEPES pH 7.5, 25 C; EMSA: 60 mM HEPES pH 7.5, 100 mM NaCl, on ice 10 min, native PAGE; conditions: protein: recombinant; tags: GST tag removed with PreScission (pGEX-6P-1); chain copies: 2

T1 sequence (M1GSK9 entry or part of it | mutant): as the sequence (M1GSK9 entry or part of it Y124A/| Y124A Y124A) above, with A124Y counted along it

Binder | binding result [3] | binding result [4] | also measured
ATTATTATTATTTATCCCTATTTATATTTATTGTTATTGTTATTGTTATA (ssDNA) [50 nt ssDNA] | – | – | binding result ([1]; label: 5'-FAM (EMSA)): binds
UAUUCAUUAU (ssRNA) [10 nt RNA] | no binding | no binding | Kd [2]: 1490 ± 180 nM
TTTTTTTTTT (ssDNA) [10 nt poly-dT ssDNA] | no binding | no binding | Kd [5]: 1570 ± 310 nM
AUUAUUAUUAUUUAUCCCUAUUUAUAUUUAUUGUUAUUGUUAUUGUUAUA (ssRNA) [50 nt RNA] | – | – | binding result ([1]; label: 5'-FAM): binds
